Experimental data as given in article PMC9204493.

Legend:
Experiment in all cases: SEC-MALS; Superose 6 Increase 10/300, 1x PBS pH 7.4, 0.4 mL/min, non-denaturing; self-assembly of the fusion protein into the nanoparticle
[1] = biological target: Encapsulin-pH1HA10 (Myxococcus xanthus) (UniProt Q1D6H4)
[2] = biological target: MsDps2-pH1HA10 (Mycobacterium smegmatis)
[3] = biological target: pH1HA10-Ferritin (Helicobacter pylori) (UniProt Q9ZLI1)

**Q.** “Encapsulin-pH1HA10 (from UniProt Q1D6H4 1-287)” was tested. Which stoichiometry N [1] did it give?
**A.** 180

**Q.** For MsDps2-pH1HA10, which stoichiometry N [2] is on record?
**A.** 12

**Q.** For “pH1HA10-Ferritin (from UniProt Q9ZLI1 1-163)”, which stoichiometry N [3] is on record?
**A.** 24
